# Measured values published in doi:10.1101/2025.05.20.655035.
# Read-outs that look alike come from different tables or passages of the source.
# T1: His6-TCP4 (TCP4-His6) (Arabidopsis thaliana, UniProt Q8LPR5 1-420)
# T1 sequence: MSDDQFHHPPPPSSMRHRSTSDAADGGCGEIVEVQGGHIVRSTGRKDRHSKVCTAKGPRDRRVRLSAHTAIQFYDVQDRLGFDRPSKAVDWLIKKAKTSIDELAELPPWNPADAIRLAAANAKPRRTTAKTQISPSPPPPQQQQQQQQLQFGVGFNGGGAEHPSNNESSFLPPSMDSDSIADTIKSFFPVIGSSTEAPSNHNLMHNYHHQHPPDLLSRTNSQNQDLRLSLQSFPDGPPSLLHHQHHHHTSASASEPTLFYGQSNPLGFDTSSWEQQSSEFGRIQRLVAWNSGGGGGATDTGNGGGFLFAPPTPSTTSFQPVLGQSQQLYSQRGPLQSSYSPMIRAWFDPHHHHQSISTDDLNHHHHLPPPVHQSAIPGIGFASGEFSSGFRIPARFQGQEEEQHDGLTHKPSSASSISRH
# Tests used:
# [1] = target: T1, His6-TCP4 (TCP4-His6); assay: EMSA
# [2] = target: T1, His6-TCP4 (TCP4-His6); assay: EMSA; remark: listed apart in the source
Binder,binding result [1],binding result [2]
BS5 (dsDNA) DNA 1: TTGCATATTGGTTGGTCCAAAAAGATCAAC DNA 2: GTTGATCTTTTTGGACCAACCAATATGCAA,no binding,
BS1 (dsDNA) DNA 1: TCAATTCAACTAGGCCCAGTTTCCTCCTTC DNA 2: GAAGGAGGAAACTGGGCCTAGTTGAATTGA,no binding,
BS3-4 (dsDNA) DNA 1: CAACACACAAATGTGGTCCATTTCTTTTTGTTCATGTGGTCCAATTTTGGTATAT DNA 2: ATATACCAAAATTGGACCACATGAACAAAAAGAAATGGACCACATTTGTGTGTTG,,binds
BS2 (dsDNA) DNA 1: GTGATGTTAAAATGGTCCTAAGTTGACATA DNA 2: TATGTCAACTTAGGACCATTTTAACATCAC,,binds
